The values that follow are results of earlier work, collected in publication PMC4253632.

The target in the series is Syntaxin 4 (Homo sapiens) (UniProt Q12846).
UniProt Q12846, sequence (Q12846 whole entry): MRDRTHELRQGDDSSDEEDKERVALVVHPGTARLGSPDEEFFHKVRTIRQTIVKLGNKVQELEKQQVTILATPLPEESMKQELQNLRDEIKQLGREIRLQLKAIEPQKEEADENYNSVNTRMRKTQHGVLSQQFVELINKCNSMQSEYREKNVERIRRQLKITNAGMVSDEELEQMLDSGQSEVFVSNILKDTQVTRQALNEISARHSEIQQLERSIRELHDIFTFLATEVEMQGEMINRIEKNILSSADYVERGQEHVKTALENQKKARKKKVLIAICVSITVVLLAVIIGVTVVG

As a reminder, the Kd is the equilibrium constant for the complex coming apart. Take Munc18c (from UniProt O00186): the Kd is 30 nM.
